Biological target: SARS-CoV-2 spike protein receptor-binding domain (RBD) (SARS-CoV-2) (UniProt P0DTC2)
Test: SPR

CR3022
Kd: 11 nM

— paper PMC8786865
